Legend:
[1] = molecular target: the molecule itself; assay: native gel or EMSA
[2] = molecular target: T1, Saccharomyces cerevisiae Pol32, PCNA-binding subunit of DNA polymerase delta (ScPol32) (Saccharomyces cerevisiae, UniProt P47110 1-350); assay: ITC
T1 sequence: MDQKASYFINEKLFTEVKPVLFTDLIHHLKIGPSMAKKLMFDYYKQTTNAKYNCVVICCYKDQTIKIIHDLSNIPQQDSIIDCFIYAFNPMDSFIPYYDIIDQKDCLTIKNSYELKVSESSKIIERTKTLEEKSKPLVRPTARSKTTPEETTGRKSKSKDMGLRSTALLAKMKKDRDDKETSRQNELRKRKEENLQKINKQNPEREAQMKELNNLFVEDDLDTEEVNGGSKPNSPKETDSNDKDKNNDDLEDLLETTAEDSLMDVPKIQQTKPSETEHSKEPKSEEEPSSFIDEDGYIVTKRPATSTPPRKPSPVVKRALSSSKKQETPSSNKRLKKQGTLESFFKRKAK

[3] = molecular target: T2, Saccharomyces cerevisiae Pol32, PCNA-binding subunit of DNA polymerase delta (ScPol32) (Saccharomyces cerevisiae), P47110; assay: ITC; conditions: remark: other sources report otherwise
T2 chain: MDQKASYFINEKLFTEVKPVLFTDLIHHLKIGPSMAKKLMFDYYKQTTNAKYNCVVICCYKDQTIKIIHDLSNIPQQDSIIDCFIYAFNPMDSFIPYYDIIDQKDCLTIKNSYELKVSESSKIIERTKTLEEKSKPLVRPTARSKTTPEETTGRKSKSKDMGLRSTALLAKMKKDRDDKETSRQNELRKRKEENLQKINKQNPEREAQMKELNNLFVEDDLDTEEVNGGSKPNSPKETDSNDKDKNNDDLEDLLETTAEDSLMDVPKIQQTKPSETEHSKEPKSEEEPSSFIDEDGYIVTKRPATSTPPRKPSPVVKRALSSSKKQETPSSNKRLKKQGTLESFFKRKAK

B1: Neurospora crassa proliferating cell nuclear antigen (NcPCNA), GST tag cleaved (natural protein)
chain: MLEARLEQASILKKVVDAIKDLVQDCNFDCNDSGIALQAMDNSHVALVSMMLKTETFSPFRCDRNIALGVNLTSLTKVLRAAQNEDILTLKAEDAPDVLNLVFESSENDRISEYDLKLMDIDQEHLGIPDTEYAATISMPSSEFKRITTDLMAMSESVNIEASKDGVKFSCQGDIGNGSITLRQHTNVDKPSENIEIELSEPVSLTFSLKYLVNFCKASALSSTVKICLSNEVPLLVEYNISASSYLRFYLAPKIGDEE
Q: B1 was tested. Which “stoichiometry N” value [1] did it give?
A: 3

Q: What about the Kd [2] of the same binder?
A: 4.28 ± 0.325 µM

Q: And the dH [2]?
A: -1.24 ± 0.0554 kcal/mol

Q: And the “stoichiometry N” value [2]?
A: 1.06 ± 0.035

B2: Saccharomyces cerevisiae PCNA (ScPCNA), wild type, P15873 1-258 (natural protein)
chain: MLEAKFEEASLFKRIIDGFKDCVQLVNFQCKEDGIIAQAVDDSRVLLVSLEIGVEAFQEYRCDHPVTLGMDLTSLSKILRCGNNTDTLTLIADNTPDSIILLFEDTKKDRIAEYSLKLMDIDADFLKIEELQYDSTLSLPSSEFSKIVRDLSQLSDSINIMITKETIKFVADGDIGSGSVIIKPFVDMEHPETSIKLEMDQPVDLTFGAKYLLDIIKGSSLSDRVGIRLSSEAPALFQFDLKSGFLQFFLAPKFNDEE
Q: Which results are given for B2?
A: Kd [3]: 2.75 µM; dH [3]: -1.48 kcal/mol; stoichiometry N [3]: 1.05

Reference: PMC8319368 (The Journal of Biological Chemistry, 2021)
